# Test results reported in PMC7145421.
# Target: PKR (endogenous) (UniProt Q03963)
# Assay: FLAG co-immunoprecipitation, western blot
# Conditions: reference: FLAG-WT PACT; sites S246
substance,measurement,value
PACT (FLAG-tagged wild type and mutant constructs) (from UniProt O75569) FLAG-S246A PACT,binding against the reference,weaker
